Target: the molecule itself
Test: SEC

B1: FANCA-WT (natural protein, human, UniProt O15360 1-1455, looked up)
chain: MSDSWVPNSASGQDPGGRRRAWAELLAGRVKREKYNPERAQKLKESAVRLLRSHQDLNALLLEVEGPLCKKLSLSKVIDCDSSEAYANHSSSFIGSALQDQASRLGVPVGILSAGMVASSVGQICTAPAETSHPVLLTVEQRKKLSSLLEFAQYLLAHSMFSRLSFCQELWKIQSSLLLEAVWHLHVQGIVSLQELLESHPDMHAVGSWLFRNLCCLCEQMEASCQHADVARAMLSDFVQMFVLRGFQKNSDLRRTVEPEKMPQVTVDVLQRMLIFALDALAAGVQEESSTHKIVRCWFGVFSGHTLGSVISTDPLKRFFSHTLTQILTHSPVLKASDAVQMQREWSFARTHPLLTSLYRRLFVMLSAEELVGHLQEVLETQEVHWQRVLSFVSALVVCFPEAQQLLEDWVARLMAQAFESCQLDSMVTAFLVVRQAALEGPSAFLSYADWFKASFGSTRGYHGCSKKALVFLFTFLSELVPFESPRYLQVHILHPPLVPGKYRSLLTDYISLAKTRLADLKVSIENMGLYEDLSSAGDITEPHSQALQDVEKAIMVFEHTGNIPVTVMEASIFRRPYYVSHFLPALLTPRVLPKVPDSRVAFIESLKRADKIPPSLYSTYCQACSAAEEKPEDAALGVRAEPNSAEEPLGQLTAALGELRASMTDPSQRDVISAQVAVISERLRAVLGHNEDDSSVEISKIQLSINTPRLEPREHMAVDLLLTSFCQNLMAASSVAPPERQGPWAALFVRTMCGRVLPAVLTRLCQLLRHQGPSLSAPHVLGLAALAVHLGESRSALPEVDVGPPAPGAGLPVPALFDSLLTCRTRDSLFFCLKFCTAAISYSLCKFSSQSRDTLCSCLSPGLIKKFQFLMFRLFSEARQPLSEEDVASLSWRPLHLPSADWQRAALSLWTHRTFREVLKEEDVHLTYQDWLHLELEIQPEADALSDTERQDFHQWAIHEHFLPESSASGGCDGDLQAACTILVNALMDFHQSSRSYDHSENSDLVFGGRTGNEDIISRLQEMVADLELQQDLIVPLGHTPSQEHFLFEIFRRRLQALTSGWSVAASLQRQRELLMYKRILLRLPSSVLCGSSFQAEQPITARCEQFFHLVNSEMRNFCSHGGALTQDITAHFFRGLLNACLRSRDPSLMVDFILAKCQTKCPLILTSALVWWPSLEPVLLCRWRRHCQSPLPRELQKLQEGRQFASDFLSPEAASPAPNPDWLSAAALHFAIQQVREENIRKQLKKLDCEREELLVFLFFFSLMGLLSSHLTSNSTTDLPKAFHVCAAILECLEKRKISWLALFQLTESDLRLGRLLLRVAPDQHTRLLPFAFYSLLSYFHEDAAIREEAFLHVAVDMYLKLVQLFVAGDTSTVSPPAGRSLELKGQGNPVELITKARLFLLQLIPRCPKKSFSHVAELLADRGDCDPEVSAALQSRQQAAPDADLSQEPHLF
stoichiometry N: 2

Source: paper PMC6097932 (Molecular cell, 2018)
